The values below come from the supplement of paper PMC9170038.

This data set deals with MS2 coat protein. The experiment in a line: apparent KD of MS2 coat protein; higher = weaker reporter binding. As to conditions: Eterna round: R107. As for the experimental part: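 RNA-MaP round R107: designed RNA switches with theophylline, tryptophan, arginine or FMN aptamers are transcribed on-chip within common flanks. They are titrated with SNAP-549-labelled MS2 coat protein in RNA-MaP buffer (100 mM Tris pH 7.5, 80 mM KCl, 4 mM MgCl2), without ligand or with the indicated ligand. Median apparent KD per design.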

The mark [1] stands for this setting: input ligand: theophylline 20 uM.
Setting [2] is: input ligand: theophylline 2 mM.
[3] abbreviates: input ligand: tryptophan 2.4 mM.

For the sequence “AAACAUGAGGAUCACCCAUGUUCUCGUGUCCGAGGACCGGUACGGCCGCCACUCGGUUCUCGCGAGGAUGGUCAAAGACUAUCCA [Omei Trp A SS B v6]”, the “apparent KD of MS2 coat protein” value is 22.9 nM (input ligand: arginine 13.2 mM); 45.1 nM (input ligand: none); 53.6 nM under setting [1]; 46.6 nM under setting [2]; 29 nM under setting [3].
For the sequence “AAACGCCACGGAAGGAGCGACAUGAGGAUCACCCAUGUAGAUUUGGCGGAUGCACCCUCCUGUCAGGUAGGUCGCCGUGCGCUAA [XArg-B24]”, the “apparent KD of MS2 coat protein” value by setting is: (input ligand: arginine 13.2 mM) 51.8 nM; (input ligand: none) 61 nM; under setting [1], 90.2 nM; under setting [2], 99.9 nM; under setting [3], 100 nM.
Regarding “AAACGUUGCUCAGAUACCAGACAUGAGGAUCACCCAUGUACCAAGGUAAAGAAAUAACGUGUCCCUUGGCAGCUGAGCAACGAAA [MAT - Exclusion Theophlline B - Mod of Eli - D11]”, the “apparent KD of MS2 coat protein” value by setting is: (input ligand: arginine 13.2 mM) 13.8 nM; under setting [1], 13.8 nM; under setting [3], 11.1 nM.
As to “AAACUAACGAGAGGAAACCUCGAGGGUGAUACCAGCACAUAAGGGUGCCCUUGGCAGCACCGACGUACAUGAGGAUCACCCAUGU [Gexegees]”, the “apparent KD of MS2 coat protein” value amounted to 56.6 nM (input ligand: arginine 13.2 mM), 154 nM under setting [1] and 169 nM under setting [3].
As to “AAAGAUUCCUGAACGCCGCAUACCGAUGAUACCAGCCAACGGAAAGGCCCUUGGCAGCAUUAAACAUGAGGAUCACCCAUGUCUA [theeternabot_exclusion_MS2_Theo_A_43]”, the “apparent KD of MS2 coat protein” value (input ligand: arginine 13.2 mM) was 11.4 nM, the “apparent KD of MS2 coat protein” value under setting [1] is 15 nM and the “apparent KD of MS2 coat protein” value under setting [3] came out at 12.1 nM.
For “AAAGGUCGCAAUAAAUCUCCUACAUGUGAAGGAGCGCGCGAAAGCGCAGGUAGGUCGCACAUGAGGAUCACCCAUGUGAGCGACC [MAT - Exclusion Arginine A - Mod of Eli - D3]”, the “apparent KD of MS2 coat protein” value by setting is: (input ligand: arginine 13.2 mM) 9.41 nM; (input ligand: none) 11.5 nM; under setting [1], 14.5 nM; under setting [2], 13.1 nM; under setting [3], 10.8 nM.
Take “AAAUAAAUACAUGAGGAUCACCCAUGUGAAGGAGCGCCCGUUAGGGCAGGUAGGUCGCACAUGAAUAACUCCGUGCAAAAGCACA [ArgEX 18 #OpenEnded]”: the “apparent KD of MS2 coat protein” value (input ligand: arginine 13.2 mM) was 20.9 nM; the “apparent KD of MS2 coat protein” value (input ligand: none) was found to be 29 nM; the “apparent KD of MS2 coat protein” value under setting [1] stood at 38.8 nM; the “apparent KD of MS2 coat protein” value under setting [2] amounted to 37.1 nM; the “apparent KD of MS2 coat protein” value under setting [3] stood at 31.3 nM.
For “AACAACAAGGGAAGGAGCGCGAAUAAUAGACAUGAGGAUCACCCAUGUAUCAUGGGAUUAACGCAGGUAGGUCGCCCACAAACAA [#07 Exclusion - Arginine B]”, in that order: 60.4 nM, 127 nM, 155 nM, 152 nM and 71.7 nM.
For “AACAUACAAUAUUAGGUGGAUAUAAGGCGGCGAGGACCGGUACGGCCGCCACUCGCGUACAUGAGGAUCACCCAUGUCUGAAACU [Same State - Tryptophan A (Freestyle 4)]”, the “apparent KD of MS2 coat protein” value is, setting by setting: (input ligand: arginine 13.2 mM) 16.6 nM; under setting [1], 26.8 nM; under setting [2], 24.3 nM.
For the sequence “AACAUGAGGAUCACCCAUGUUUGCUAUGAAGGAGCGUCGGAAAUGACAGGUAGGUCGCAUGGUAGACCGAGUAUUAUCUGUAUGG [EAA NP+V+V2 #11]”, the “apparent KD of MS2 coat protein” value was determined as 14.9 nM (input ligand: arginine 13.2 mM); 9.74 nM (input ligand: none); 19.5 nM under setting [1]; 10.7 nM under setting [2]; 12.1 nM under setting [3].
Regarding “AACUGGACCAGUGAUACCAGAGACAUGAGGAUCACCCAUGUACAUGAGGAUCACCCAUGUCUCCCUUGGCAGCACAGCAGGGAGC [Exclusion Theophylline B Gf12]”, the “apparent KD of MS2 coat protein” value reads like this: (input ligand: arginine 13.2 mM) 66 nM; (input ligand: none) 117 nM; under setting [1], 109 nM; under setting [2], 720 nM; under setting [3], 119 nM.
For “AAUAACUUGAGGAUCACCCAAGUAAAAGAUACCAGAGUGAUGAUCCUCCCUUGGCAGCUUAACGCUGAUUGAUUACAAUCAGCGA”, in that order: 63.2 nM, 62.3 nM, 182 nM, 121 nM and 45.8 nM.
Turning to “AAUACCGGUCCUCGAAGGUGAUCCUCAUAACGAGGACCGGUACGGCCGCCACUCGAUAACAUGAGGAUCACCCAUGUAAUAAUAA [|T'-M'-Trp-Ms2|_Design6]”, the “apparent KD of MS2 coat protein” value reads like this: (input ligand: arginine 13.2 mM) 56.1 nM; under setting [1], 175 nM; under setting [2], 235 nM.
Consider “AAUAUAAUAUAAAUAAUAAUAAUAUCUGAUACCAGACUCUCAUGUGUCCCUUGGCAGCAGUAACAUGAGGAUCACCCAUGUAAUA [JR_Nu_SSTheophyA_Sub027]”, for which the “apparent KD of MS2 coat protein” value turned out to be 33 nM (input ligand: arginine 13.2 mM); 62.7 nM (input ligand: none); 46.7 nM under setting [1]; 16.2 nM under setting [2]; 52 nM under setting [3].
“AAUAUAUAUCACGAACUGUGGUGUAUGUUGCGAGGACCGGUACGGCCGCCACUCGGCCGGUGGUACAUGAGGAUCACCCAUGUUG [XTryp A #9]”: the “apparent KD of MS2 coat protein” value reads like this: (input ligand: arginine 13.2 mM) 35.3 nM; (input ligand: none) 25.3 nM; under setting [1], 48.7 nM; under setting [2], 40.1 nM; under setting [3], 28.2 nM.
